Measurements published in US20060067930A1 (Genentech, published 2006).

Molecular target: T1, human FcγRIII (V158)
T1 construct: also called FcγRIIIA-Val158; CD16
Assay: ELISA of 2H7 variants binding to human FcγRIII (V158)

T1 sequence (chain, as listed by the source limits assumed): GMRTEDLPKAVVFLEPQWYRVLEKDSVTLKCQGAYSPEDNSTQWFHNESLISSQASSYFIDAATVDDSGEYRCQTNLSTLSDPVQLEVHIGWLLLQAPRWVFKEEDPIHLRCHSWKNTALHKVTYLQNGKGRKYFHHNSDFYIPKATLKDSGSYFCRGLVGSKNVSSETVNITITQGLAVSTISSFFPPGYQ

binding result | EC50 (read off the curve) | Binder
binds |  | 2H7.v16 (antibody, human IgG1, kappa, Humanized anti-CD20 antibody with no Fc changes; also called humanized 2H7v.16; 2H7 version 16) light chain: DIQMTQSPSSLSASVGDRVTITCRASSSVSYMHWYQQKPGKAPKPLIYAPSNLASGVPSRFSGSGSGTDFTLTISSLQPEDFATYYCQQWSFNPPTFGQGTKVEIKRTVAAPSVFIFPPSDEQLKSGTASVVCLLNNFYPREAKVQWKVDNALQSGNSQESVTEQDSKDSTYSLSSTLTLSKADYEKHKVYACEVTHQGLSSPVTKSFNRGEC heavy chain: not shown
 | ~0.6 µg/mL | 2H7.v375 (antibody, human IgG1, kappa, copies: 2 + 2) light: DIQMTQSPSSLSASVGDRVTITCRASSSVSYMHWYQQKPGKAPKPLIYAPSNLASGVPSRFSGSGSGTDFTLTISSLQPEDFATYYCQQWSFNPPTFGQGTKVEIKRTVAAPSVFIFPPSDEQLKSGTASVVCLLNNFYPREAKVQWKVDNALQSGNSQESVTEQDSKDSTYSLSSTLTLSKADYEKHKVYACEVTHQGLSSPVTKSFNRGEC heavy: not shown
